Values quoted from earlier work in doi:10.1101/2023.06.05.542125.
Read-outs that look alike come from different tables or passages of the source.

How the values were obtained:
[1] = target: RNA polymerase elongation complex (Escherichia coli) (UniProt P0A7Z4)
[2] = target: RNA polymerase elongation complex (Escherichia coli) (UniProt P0A7Z4); remark: listed apart in the source

Sequence of GreA (P0A6W5 whole entry): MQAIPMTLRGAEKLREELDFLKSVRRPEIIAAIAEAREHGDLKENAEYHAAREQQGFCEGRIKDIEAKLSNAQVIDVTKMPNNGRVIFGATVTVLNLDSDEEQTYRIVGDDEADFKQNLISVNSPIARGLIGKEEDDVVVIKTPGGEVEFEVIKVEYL
Sequence of GreB (P30128 whole entry): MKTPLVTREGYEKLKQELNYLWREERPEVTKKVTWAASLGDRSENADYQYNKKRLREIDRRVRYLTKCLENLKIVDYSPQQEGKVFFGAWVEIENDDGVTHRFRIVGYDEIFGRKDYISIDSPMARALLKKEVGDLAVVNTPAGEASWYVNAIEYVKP

Kd [1] [nM] | Kd [2] [nM] | Substance
1000 |  | GreA (from UniProt P0A6W5)
 | 100 | GreB (from UniProt P30128)
